Substrate: NC(=O)c1ccc[n+]([C@@H]2O[C@H](COP(=O)(O)OP(=O)(O)OC[C@H]3O[C@@H](n4cnc5c(N)ncnc54)[C@H](OP(=O)(O)O)[C@@H]3O)[C@@H](O)[C@H]2O)c1
Assay: NADP+ reduction, Eadie-Hofstee plot, crude E. coli extract
Type: biochemical, Glycine max
Details: co-substrate G6P, assay as for plant extracts: 50 mM Hepes-Tris pH 7.8, 3.3 mM MgCl2

B1: GmG6PDH2 (Glycine max) (protein)
chain: MGTSEWHIERRSSFGTESPLAREAGNVPETGSLSIVVLGASGDLAKKKTFPALFHLYRQGFLPADEVHIFGYARTKISDDELRNRLRGYLVPNKGASPQLLEDVEKFLQLIKYVSGSYDSEDGFRLLDKEISEHEYLKKSVEGLSRRLFYLALPPSVYPSVCKMIKTCCMNKSDLGGWTRVVVEKPFGKDLESAEELSTEIGKLFEEPQIYRIDHYLGKELVQNLLVLRFANRFFLPLWNRDNIDNVQIVFREDFGTDGRGGYFDQYGIIRDIIQNHLLQVLCLVAMEKPVSLRPEHIRDEKVKVLESVLPIRDDEVVLGQYEGYKDDPTVPDKSNTPTFATVILRIHNERWEGVPFILKAGKALNSRKAEIRVQFKDVPGDIFKCKKQGRNEFVIRLQPLEAMYMKLTVKQPGLEMSTVQSELDLSYGQRYQGVTIPEAYERLILDTIKGDQQHFVRRDELKASWQIFTPLLHRIDEGEFKPLPYKPGSRGPAEADQLLEKAGYVQTHGYIWIPPTL
notes: full-length CDS in pET32a(+), His-tagged, E. coli Rosetta; crude lysate supernatant, not purified
Km: 33 µM

— publication PMC7054389, “Genome-Wide Analysis of the Glucose-6-Phosphate Dehydrogenase Family in Soybean and Functional Identification of GmG6PDH2 Involvement in Salt Stress” (Frontiers in Plant Science, 2020)
